In the nanobody polyreactivity screen of Harvey et al. (2022):

Assay: yeast display, Sf9 membrane polyspecificity reagent, FACS + sequencing; frameworks hold sequencing errors
In short: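 After 36–48 hours of galactose induction, yeast (Saccharomyces cerevisiae BJ5465) displaying a synthetic nanobody library were stained at 4 °C for 1 hour with 10% biotinylated, detergent-solubilized Sf9 membrane reagent. Streptavidin microbeads enriched the stained cells before FACS sorting into low and high (top ~1%) gates on anti-HA and streptavidin fluorescence. Each clone's polyreactivity label reflects its gate of origin.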

Row | Sequence | polyreactivity (PSR sort gate)
1 | QVQLVESGGGLVQAGGSLRLSCAASGIIFNHYAMGWYGQAPGKERELVAAISRRGGSTYDADSVKGRFTISRDNAKNTVYLQMNSLKPEDTAVYYCNDRSFATGSKVPARGYWGQGTQVTVSS | high polyreactivity
2 | QVQLVESGGGLVQAGGSLRLSCAASGSIFFNNAMGWYRQAPGKERELVAAITTGGSTYYADSVKGRFTISRDNAKNTVYLQMNSLKPEDTAVYYCAAVVVYPYRLGYDYWGQGTQVTVSS | low polyreactivity
3 | QVQLVESGGGLVQAGGSLRLSCAASGSTFSPYAMGWYRQAPGKEREIVAAISWGDGSTYYADSVKGRFTISRDNAKNTVYLQINSLKPEDTAVYYCNVKPSARGAPLYDYWGQGTQVTVSS | high polyreactivity
4 | QVQLVESGGGLVQAGGSIRLSCAASVSTFFVYTMGWYRQATGKGMELVAAISGSGGSTAYADSVKGRFTISRDNAKNTVYLQLNSLKPEDTAVYYCAARRHVYLRGSTFEFNYWGQGTQVTVSS | high polyreactivity
5 | QVQLVESGGGLVQAGGSLRLSCAASGSIFVYNAMGWYRQAPGKEREFVAAITKRVGRTYYADSVKGRFTISRDNAKNTVYLQMNSLKPEDTAVYYCAAVLSYTGGFDYWGQGTQVTVSS | high polyreactivity
6 | QVQLQESGGLVQAGGSLRLSCAASGSISGRNVMGWYRQSPGKEREFVASITDGSSNNYADSVKGRFTISRDNAKNTVYLQMNSLKPKDTAVYYCAAYAQRAKSFGYWGRGTQVTVSS | low polyreactivity
7 | QVQLVESGGGLVQAGGSLRLSCAASGFIFSFYAMGWYRQAPGKESELVAAITSSGATTYYADSVKGRFTISRDNAKNTVYLQMNSLKPVDTAVYYCNAVYRRDTGYYRYYYWGQGTQVTVSS | high polyreactivity
8 | QVQLVESGGGLVQAGGSLRLSCAASGIIFWSSVMGWYRQAPGKERELVAAITFSGGSTYYADSVKGRFTISRDNAKNPVYLQMNSLKPEDTAVYYCAARYKLVRRYDYWGQGTQVTVSS | low polyreactivity
9 | QVQLLESGGGLVQAGASLRLSCAASGSTFSYYAMGWYRQAPGKERELDAAISWRGSSTYYADSVKRRITISRDNANNTVYLQMNSLTPEATAVYYCAAGYPGRVSGYLYGTRATYYYWGQGTQVTVSS | high polyreactivity
10 | QVQLVESGGGLVQARGSLRLSCAASGRSFVINAMGWYRPAPGKERELVAGITSSGNTNYADSVKGRFTISRDNAKNTVYLQMNSLKPEDTAVYDCNAQVYLTWLTYWLYYPPNDYWGQGTQVTVSS | low polyreactivity
11 | QVQLVESGGGLVQAGGSLRLSCAASGRTFGLNAMGWYRQAPGKERELVAVITSSGGSTYYADSVKGRFTISRDNAKNTVYLQMNSLKPEDTAVYYCAARPPYTDSSPGERTYDYWGQGTQVTVSS | low polyreactivity
12 | QVQLVESGGGLVQAGGSLRLSCAASGRIFQPNVMGWYRQAPGIERELVAAIRSGSSTYYADSVKGRFTISRDNAKNTVYLQMNSLKPEDTAVDYCATRYRKQYKPYEYWGQGTQVTVSA | high polyreactivity
13 | QVQLVESGGGLDQAGGSLRLSFAASGSTFVPNVMGWYRQAPGKERELVASITSGGITNYADSVKGRFTISRDNAKNTVYLQMNSLKPEDTAVKGDYWGQGTQVTVSS | low polyreactivity
14 | QVQLVESGGGLVQAGGSLRLSCAASGSIFVEYAMGWYRQAPGKERELVAAISYSGSSTNYADSVKGRFTISRDNAKNTVYLQMNSLKPEDTAVYYCNADGTGGEQKPYYELDYWGQGTQVTVSS | low polyreactivity
15 | QVQLVESGGGLVHAGGSLRLSCAASGRTFLLYAMGWYRQAPGKERELVARITGRGGRTYYADSVKGRFTISRDNAKNTVYLQMNSLKPEDTAVYYCNAKGYQGQWERYDYWGQGTQVTVSS | high polyreactivity
16 | QVKLVESGGGLVQAGGSLRLSCAASGSTINLYDMGSYIQAPGKERELVADISRGGSTNYADSVKGRFTITRDNAKNTVYLQMNSLIPEDTAVYYCAAFYFTYDFWTYSFAEYDYWGQGTQVTVSS | high polyreactivity
17 | QVQLVESGGGLVQAGGSLRLSCAASGRTFGVYAMGWYRQAPGKERELVARIRYSGGTTRYADSVKGRFTISRDNAKITVYFQMNSLKPEDTAVYYCAARSGYFRSRFDYWGQGTQVTVSS | high polyreactivity
18 | QVQLVESGGGLVQAGGSLRLSCAASGSIFNSYAMGWYRQAPGKERELVAAISSGGGRTYYAVSVKGRFKISRDNAKNTVYLQMNSLKPEDTAVYYCAKYYRAFIRDYNYWGQGTQVTVSS | high polyreactivity
19 | QVQLVESGGGLVQAGGSLRLSCAASGSIIDWNAMGWYRQAPGKERELVAVISWGGGSTYADSVKGRFTISRDNAKNTVYLQMNSLKPEDTAVYNCNKEPIYYPVSDYDYWGQGTQVTVSS | low polyreactivity
20 | QDQLVESGGGLVQAGGSLRLSCAASGLILHKYAMGWYRQAPGKERELVASINSGANTNYADSVKGRFTISRDNAKNTLYLHLNSLKPEDTAVYYCAADWQQLSYVWRSQRRYNYWGQGTQVTVSS | low polyreactivity

Row | Sequence | polyreactivity (PSR sort gate)
21 | QVQLVESGGGLVQAGGSLRLSCAASGTIYVTNGMGWYRQAPGKERELVAVISWGGGNTYYADSVKRRFTISRDNAKNTVYLQMNILKPEDTAVYYCAADPISEFYWGVKDRYDYWGQGTQVTVSS | low polyreactivity
22 | QVQLVESGGGLVQAGGSLRLSCAASGIIFVYNAMGWYRQAPGKERELVAGISFIGDSTYYADSVKGRFTISRDNAKNTVYLQMNSLKPEDTAVYYCAADYYLPYWFFVGYDYWGQGTQVTVSS | low polyreactivity
23 | QVQLVESGGGLVQAGGSLRLSCAASGSTFLRNAMGWYRQAPGKERQLVAAISRRGGSTYYADSVKGRFTISRDNAKNTVYLQMNSLKPEDTSVYYCAKDYRSPISGDYWGQGTQVTVSS | high polyreactivity
24 | QVQLVESGGGLVQAGGSLRLSCAASGSIYDWYSMGWNIQAPGKERELVAAISSGDSTYYADSVKGRFTISRDNAKNTVYLQMNSLKPEDTAVYYCAAVTKLSGIRYNYWGQGTQVTVSS | low polyreactivity
25 | QDQLGESGGGLVQAGGRLRLSCAASGFIIWNYGMGWYRQPPGKERELVAAISSGGTITKYADSVKGRFTISRDNAKNTVYLQMNSLKPEDTAVYYWAARWGVRAGYATFDYWGQGTQVTVSS | high polyreactivity
26 | QVQLVESGGGLVQAGGSLRLSCAASGFIFYQYAMGWYRQAPGKERELVAAITSRGGRTYYADSVKGRFTISRDNAKNTVYLQMNSLKPEDTAVYYCAVRKASDYYYWGQGTQVTVSS | high polyreactivity
27 | QLQLVESGGGLGQAGGSLRLSCAASGSIFDHYAMGWYRQAPGKERELVASMSKCGGSTYYADSVKGRFTISRDNAKNTVYLQMNSLKPEDTAVYYCASKQYYRGHNYWGQGTQVTVSS | high polyreactivity
28 | QVQLVESGGGLVQAGGSLRLSCAASGFTFRAYVMGWDRQAPGKERELVASISKRGGNTYYADSVKGRFTISRDNAKNTVYLQMNSLKPEDTAVYYCAVDFFGDRGDYDYWGQGTQVTVSS | high polyreactivity
29 | QVQLVESGGGLVQAGGSLRLSCAASGRTISYNTMGWYRQARGKERELVARITWGGGSTNYADSVKGSFTISRDNAKNTVYLQMNSLKPEDTAVYYCAREYSSVYWVRHLFYYWGQGTQVTVSS | low polyreactivity
30 | QVQLVESGVGLVQAGGSLRLSCAPSGSIFGRNAMGWYRQAPGKERELVAAISGGGSTNYSDSVKGRFTISRDNAKNTVYLQMNSLKPEDTAVYYCNTYPGSRHWWYDYWGQGTQGTVSS | high polyreactivity
31 | QVQLVESGGGLVQAGGSLRLSCAASGSTFYSNAMGWYRQAPGKERELVAAISRRGSSTYYADSVKGRFTISRDNAKNTVYLQMNSLKPEDTAVYYCNAVGTGGYSSEYGYWGQGTQVTVSS | high polyreactivity
32 | QDQLVESGGGLVQEGGSLRLSCAASGLIFTYYAMGWYRQAPGKERELVAAINYSGGSTYYADSVKGRFTISRDNAKNTVYLQMNSLKPEDTAVYYCDARRVTQTEGPMGYWGQGTQVTVSS | low polyreactivity
33 | QVHLVESGGGLVQAGGSLRLSCAASGRTFAPNAMGWYIQAPGKERELVAAISYNSGTTYYADSVKGRFTISRDNAKNTVYLQMNSLKPEDTAVYYCAARRYYKYDWGQGTQVTVSS | high polyreactivity
34 | QVQLVESGGGLVQAGGSLRLSCAASGSIFGRNAMGWYRQAPGKEREFVATITSRGGRTYYADSVKGRFTISRDNAKNTVYLQMNSLKPEYTAVYYCAADTYISTLKKYRLGDYWGQGTQVTVSS | low polyreactivity
35 | QVQLVESGGGLVQAGGSLRLSCAASGRIFSQNAMGWYRQAPGKERELVAVISRGGSTNYADSVKGRFTISRDNAKNTVYLQMNSLKPEDTAVYYCAADYAYIRSVWKWFIGDYWGQGTQVTVSS | low polyreactivity
36 | QLQLVESGGGLVQAGGRLRLSCAASGGIFQTNAMGWYRQAPGKERELVAAISRSAGRTYYADSVKGRFTISRDNAKNTVYLQMTSLKPEDTAVYYCNALRGRFRFDYWGQGTQVTVSS | high polyreactivity
37 | QVQLVESGGGLVQAGGSLRLSCAASGRTFYYYAMGWYRQAPGKERELVAAISWGGGRTYYADSVKGRFTISRDNAKNTVYLQMNSLKPEDTAVYYCNAVRTTPSGSLPLAYDYWGQGTQVTVSS | low polyreactivity
38 | QVQLVESGGGLVQAGGSLRLSCAASGSTLRYNTMGWYRQAPGTERELVAAIRGSGSSTYYADSVKGRFTISRDNAKNTVYLQMNSLKPEDTAVYYCAARPRWYTYTRQEYDYWGQGTQVTVSS | high polyreactivity
39 | QVQLVESGGGLVQAGGSLRLSCAASGFTFWQYAMGSSRTAPGKERELVAAISSRGGSTYYADSVKGRFTISRDKAKNTVYLQMNSLKPEDTAVYYCNARANGFKDGYWGQGTQVTVSS | high polyreactivity
40 | QVQLVESGGGLVQAGGSLRLSCAASGNIFDEYTMGWYRQAPGKERELVAGISWSGSHTYYADSVKGRFTISRDNAKNTVYLQMNSLKPEDTAVYYCIADSYPDYTGPGLDWYDYWGQGTQVTVSS | low polyreactivity
